Reference: patent publication US20260159591A1 (FIBROCOR THERAPEUTICS, published 2026)

B1: mAb FIB-918-3 (antibody, human IgG4, V domains shown)
VH: EVQLVESGGGLVQPGGSLRLSCAASGFTFSSYSMNWVRQAPGKGLEWVSYISSSSSTIYYADSVKGRFTISRDNAKNSLYLQMNSLRAEDTAVYYCARGPDLSDYFDYWGRGTLVTVSS
VL: not shown
B2: mAb FIB-918-6 (antibody, V domains shown)
VH: EVQLLESGGDLVKAGGSLRLSCAASGFTFSNAWMSWVRQAPGKGLEWVSGISGSGGSTYYADSVKGRFTISRDNSKNTLYLQMNSLRAEDTAVYYCARDRGYSYSETSNDAFDIWGRGTLVTVSS
VL: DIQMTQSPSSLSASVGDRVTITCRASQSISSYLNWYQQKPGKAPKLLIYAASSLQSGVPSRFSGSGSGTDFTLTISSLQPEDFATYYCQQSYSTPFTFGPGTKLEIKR
B3: mAb FIB-918-7 (antibody, human IgG4, V domains shown)
VH: EVQLVESGGGLVQPGGSLRLSCAASGFMFDTHAMSWVRQAPGKGLEWVSSISGSGGSIYYADSVKGRFTISRDNSKNTLYLQMNSLRAEDTAVYYCARSGETAGTDYFDYWGQGTLVTVSS
VL: EIVMTQSPATLSLSPGERATLSCRASQSVSSSYLSWYQQKPGQAPRLLIYGASTRATGIPARFSGSGSGTDFTLTISSLQPEDFAVYYCQQDYNSPYTFGQGTKVDIKR
B4: mAb FIB-918-8 (antibody, V domains shown)
VH: EVQLVESGGGVVRPGGPLRLSCAASGFTFSNAWMSWVRQAPGKGLEWVSAISGSGGSTYYADSVKGRFTISRDNSKNTLYLQMNSLRAEDTAIYYCAKQTVTSADDYFDYWGQGTLVTVSS
VL: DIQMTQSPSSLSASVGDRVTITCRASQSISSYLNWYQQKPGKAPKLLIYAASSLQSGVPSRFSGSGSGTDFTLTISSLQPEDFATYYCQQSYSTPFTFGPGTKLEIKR
B5: mAb FIB-918-9 (antibody, V domains shown)
VH: EVQLVESGGGLVQPGGSLRLSCLASGFTFSDYWMAWVRQAPGKGLEWVSAISGSGGSTYYADSVKGRFTISRDNSKNTLYLQMNSLRAEDTAVYYCAKDLLWAARDAFDIWGQGTLVTVSS
VL: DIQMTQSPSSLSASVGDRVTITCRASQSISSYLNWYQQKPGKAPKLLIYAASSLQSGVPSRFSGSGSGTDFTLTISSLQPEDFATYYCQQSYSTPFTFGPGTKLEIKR
B6: mAb FIB-918-4 (antibody, human IgG4, V domains shown)
VH: QVQLVQSGAEVKKPGATVKISCKVSGYTFTDYYMHWVRQAPGKGLEWMGGFDPEDGETIYAQKFQGRVTMTEDTSTDTAYMELSSLRSEDTAVYYCATLDYRGVVYFDYWGQGTLVTVSS
VL: NFMLTQPHSVSDSPGKTVTISCTGSSGSIASNYVQWYQQRPGSAPTTVIYEDKRRPSGVPDRFIGSIDSSSNSASLTISGLRTEDEADYYCQSYDSSNHWVFGGGTQLTVLG
B7: mAb FIB-918-2 (antibody, human IgG4, V domains shown)
VH: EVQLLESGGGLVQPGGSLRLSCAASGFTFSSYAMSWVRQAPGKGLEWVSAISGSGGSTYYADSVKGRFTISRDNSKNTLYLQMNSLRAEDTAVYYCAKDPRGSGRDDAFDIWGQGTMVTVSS
VL: NIQMTQSPSSLSASVGDRVTITCRASQTIGSYLNWYQQKPGTAPKLLIYGASTSHTWVPSRFTGGGSGTEFTLTISSLQSEDFATYYCQQSYSTPFTFGGGTKLEIKR
B8: mAb FIB-918-10 (antibody, human IgG4, V domains shown)
VH: not shown
VL: AIQLTQSPSTLSASVGDRVTITCRASQGINDFLAWYQQKPGKAPKLLIYAASSLQSGVPSRFSGSGSGTDFTLTISSLQPEDFATYYCQQSYSTPLTFGGGTKVEIKR

Key:
[1] = target: T1, murine ITGA11 expressed in CHO cells (murine, UniProt P61622 23-1188); experiment: flow cytometry, 34 nM antibody on CHO cells expressing murine ITGA11
T1 construct: whole, on cells; Only the alpha chain is named for these cells; also called mouse ITGA11; CHO cells expressing murine ITGA11
T1 sequence (looked up): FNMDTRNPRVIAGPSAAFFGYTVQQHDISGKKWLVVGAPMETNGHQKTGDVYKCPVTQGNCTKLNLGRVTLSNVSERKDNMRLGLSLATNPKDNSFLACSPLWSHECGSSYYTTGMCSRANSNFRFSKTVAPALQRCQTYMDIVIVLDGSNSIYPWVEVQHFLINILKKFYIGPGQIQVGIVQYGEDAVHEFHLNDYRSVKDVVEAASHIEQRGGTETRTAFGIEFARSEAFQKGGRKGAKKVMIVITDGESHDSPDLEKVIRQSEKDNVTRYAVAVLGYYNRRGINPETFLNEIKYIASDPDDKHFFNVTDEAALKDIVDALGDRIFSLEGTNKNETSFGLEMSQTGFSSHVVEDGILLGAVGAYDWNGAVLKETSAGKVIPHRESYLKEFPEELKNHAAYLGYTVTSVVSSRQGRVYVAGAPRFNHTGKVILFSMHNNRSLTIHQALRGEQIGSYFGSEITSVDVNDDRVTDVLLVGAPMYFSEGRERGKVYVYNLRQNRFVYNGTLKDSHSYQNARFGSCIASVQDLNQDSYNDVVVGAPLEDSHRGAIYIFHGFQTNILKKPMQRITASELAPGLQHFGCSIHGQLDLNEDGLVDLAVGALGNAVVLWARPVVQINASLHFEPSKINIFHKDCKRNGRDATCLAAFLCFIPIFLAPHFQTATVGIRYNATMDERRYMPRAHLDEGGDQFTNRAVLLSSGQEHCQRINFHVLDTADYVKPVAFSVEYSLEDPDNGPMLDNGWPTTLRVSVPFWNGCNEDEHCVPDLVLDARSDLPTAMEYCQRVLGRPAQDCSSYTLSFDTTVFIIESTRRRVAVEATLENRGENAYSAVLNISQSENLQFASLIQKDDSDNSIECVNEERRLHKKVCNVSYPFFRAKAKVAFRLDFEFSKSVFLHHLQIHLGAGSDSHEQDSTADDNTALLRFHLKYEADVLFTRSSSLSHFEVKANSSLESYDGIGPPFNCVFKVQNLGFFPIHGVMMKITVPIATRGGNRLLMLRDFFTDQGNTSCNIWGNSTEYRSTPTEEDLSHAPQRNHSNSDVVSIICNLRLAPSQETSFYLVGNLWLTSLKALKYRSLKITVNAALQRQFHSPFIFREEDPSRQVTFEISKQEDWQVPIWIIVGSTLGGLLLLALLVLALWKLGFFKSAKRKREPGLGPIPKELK
Description: (§1) Antibody binding to C2C12 cells expressing human ITGA11 or CHO cells expressing murine ITGA11 was performed by incubating the cells with the antibodies at a concentration of 34 nM for 1 hour at 4° C. in binding medium (PBS, 10% normal goat serum, 2% rabbit serum, and 1% BSA). Cells were washed in binding medium and binding was detected using goat-anti-human Fc BV421 (Jackson ImmunoLabs). After washing the cells were resuspended in binding medium and binding was assessed by flow cytometry. 226 antibodies were screened and the binding characteristics of 10 antibodies are presented below. The results are provided in Table 2 and are expressed as mean fluorescence intensity (MFI).

[2] = target: T2, human ITGA11 expressed in mouse C2C12 cells (human, UniProt Q9UKX5 23-1188); experiment: flow cytometry, 34 nM antibody on C2C12 cells expressing human ITGA11
T2 construct: whole, on cells; also called integrin α11; C2C12 cells expressing human ITGA11
T2 sequence (looked up): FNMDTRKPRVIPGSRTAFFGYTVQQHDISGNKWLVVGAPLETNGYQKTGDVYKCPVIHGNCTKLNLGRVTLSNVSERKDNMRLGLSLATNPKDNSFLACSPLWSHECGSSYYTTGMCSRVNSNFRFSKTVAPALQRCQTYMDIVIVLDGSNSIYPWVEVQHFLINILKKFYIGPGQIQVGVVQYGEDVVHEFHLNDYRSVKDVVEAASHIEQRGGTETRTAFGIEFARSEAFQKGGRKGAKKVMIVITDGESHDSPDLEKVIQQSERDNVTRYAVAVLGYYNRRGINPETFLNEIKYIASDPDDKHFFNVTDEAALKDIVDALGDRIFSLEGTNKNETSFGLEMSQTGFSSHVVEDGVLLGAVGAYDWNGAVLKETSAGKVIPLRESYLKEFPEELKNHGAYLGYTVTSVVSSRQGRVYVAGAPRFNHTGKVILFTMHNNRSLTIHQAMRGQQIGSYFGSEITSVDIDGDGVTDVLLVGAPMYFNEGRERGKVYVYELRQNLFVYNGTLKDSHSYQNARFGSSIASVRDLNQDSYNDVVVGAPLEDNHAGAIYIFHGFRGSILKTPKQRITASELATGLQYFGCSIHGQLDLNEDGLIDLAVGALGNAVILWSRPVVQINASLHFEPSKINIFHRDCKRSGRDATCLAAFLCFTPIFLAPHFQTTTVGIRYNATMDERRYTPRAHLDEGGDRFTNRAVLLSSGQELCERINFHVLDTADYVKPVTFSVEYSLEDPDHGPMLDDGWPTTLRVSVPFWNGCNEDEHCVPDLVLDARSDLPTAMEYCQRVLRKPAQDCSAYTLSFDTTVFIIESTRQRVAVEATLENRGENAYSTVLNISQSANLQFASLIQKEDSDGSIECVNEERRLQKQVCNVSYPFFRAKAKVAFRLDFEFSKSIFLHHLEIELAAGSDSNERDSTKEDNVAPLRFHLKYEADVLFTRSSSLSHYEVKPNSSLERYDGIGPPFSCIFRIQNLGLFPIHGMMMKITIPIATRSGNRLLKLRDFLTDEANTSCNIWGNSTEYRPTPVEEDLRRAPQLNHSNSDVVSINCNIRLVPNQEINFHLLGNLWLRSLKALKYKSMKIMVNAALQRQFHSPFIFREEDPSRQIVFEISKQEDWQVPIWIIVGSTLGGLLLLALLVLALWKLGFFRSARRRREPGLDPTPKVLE
Description: as §1

Binder | MFI [1] [MFI] | MFI [2] [MFI]
B1 | 1520 | 5220
B2 | 9410 | 7880
B3 | 21300 | 7870
B4 | 32900 | 41500
B5 | 2030 | 1450
B6 | 4570 | 15700
B7 | 12600 | 30400
B8 | 8570 | 10600
